What was measured:
[1] = target: T1, soluble p97 (amino acids 20-710 of human p97 precursor) (Homo sapiens, UniProt P08582); experiment: solid-phase p97 binding assay of crude refolded fusion proteins (refolding efficiency); conditions: crude refolds normalized on β-lactamase activity
T1 construct: Soluble p97 (amino acids 20-710 of human p97 precursor); 6xHis; made in house
T1 sequence (P08582 20-710): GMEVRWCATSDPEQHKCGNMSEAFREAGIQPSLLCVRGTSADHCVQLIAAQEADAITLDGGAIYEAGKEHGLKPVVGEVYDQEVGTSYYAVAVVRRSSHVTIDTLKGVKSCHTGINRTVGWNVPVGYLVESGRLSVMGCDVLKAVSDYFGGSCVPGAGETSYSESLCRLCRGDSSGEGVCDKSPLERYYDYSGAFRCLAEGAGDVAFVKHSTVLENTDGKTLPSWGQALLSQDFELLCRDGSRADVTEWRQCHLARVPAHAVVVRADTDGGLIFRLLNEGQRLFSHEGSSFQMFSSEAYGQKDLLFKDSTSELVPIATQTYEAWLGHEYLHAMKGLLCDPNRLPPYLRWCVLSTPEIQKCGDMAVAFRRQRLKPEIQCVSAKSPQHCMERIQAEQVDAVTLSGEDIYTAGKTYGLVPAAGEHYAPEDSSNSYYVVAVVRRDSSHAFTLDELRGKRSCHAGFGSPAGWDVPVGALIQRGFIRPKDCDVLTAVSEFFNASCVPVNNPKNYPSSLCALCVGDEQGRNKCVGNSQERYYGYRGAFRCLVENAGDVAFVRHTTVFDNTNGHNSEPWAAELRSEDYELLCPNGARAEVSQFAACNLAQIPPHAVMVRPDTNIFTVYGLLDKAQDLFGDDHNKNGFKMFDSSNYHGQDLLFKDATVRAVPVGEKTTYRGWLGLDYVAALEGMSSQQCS
Experimental: For small scale expression BL21([DE3) (Novagen) were transformed with parental and mutant constructs and single colonies was used to inoculate 100 ml Terrific Broth II (TB) (QBIOGENE). Cells were induced at an OD of 1.0 with 1 mM IPTG (Sigma). Cells were harvested following overnight incubation and inclusion bodies were purified from the cell extracts using B-Per (Novagen) according to the manufacturers instructions. Inclusion body pellets were resuspended in 8 M urea, 2 mM DTT, 50 mM Tris.Cl pH 8.0 at a concentration of 50 mg/ml. Inclusion bodies were refolded overnight in a 50-fold dilution of 2 M urea, 0.3 M L-arginine, 50 mM Tris.Cl pH 8.0, 1 mM reduced glutathione, 0.1 mM oxidized glutathione. Protein was then dialyzed into PBS and fusion protein concentration was determined by measuring β-lactamase activity using colorimetric substrate nitrocefin.
Soluble p97 (amino acids 20-710 of human p97 precursor) was cloned into pSecTag2 (Invitrogen), incorporating an Ig Kappa leader sequence and a 6× his tag, and transfected into CHO cells. Stable transformants were selected and secreted protein was purified from conditioned medium on a metal chelate affinity column. Assays were performed by coating polystyrene 96-well plates with 2 μg/ml soluble p97 in PBS overnight. The plates were blocked by adding 1% bovine serum albumin in PBS for 1 hour at room temperature. Plates were emptied and fresh blocking reagent containing serial dilutions of L49-sFv-bL samples was added. Following 1 hour at room temperature the plates were washed and developed with 0.1 ml of colorimetric β-lactamase substrate nitrocefin solution at 0.1 mM in PBS containing 1% DMSO. Absorbance measurements were read in an ELISA plate reader using a 490 nm filter with 610 m as the reference wavelength.
The unusual residues in the L49 scFv framework were mutated to the most frequently occurring residue for that position in the Kabat database (Chowdhury et al., 1998, J. Mol. Biol. 281, 917-928). […] Binding to p97 was then determined using a solid-phase binding assay as described in Section 6.1.3, supra.

Recombinant p97 = target: T2, Recombinant p97 (Homo sapiens, UniProt P08582); experiment: binding affinity by surface plasmon resonance (Biacore 2000); conditions: 25° C., immobilized p97, 1:1 model, error in last digit in parentheses
T2 construct: Soluble p97 (amino acids 20-710 of human p97 precursor); 6xHis; made in house
T2 sequence (P08582 20-710): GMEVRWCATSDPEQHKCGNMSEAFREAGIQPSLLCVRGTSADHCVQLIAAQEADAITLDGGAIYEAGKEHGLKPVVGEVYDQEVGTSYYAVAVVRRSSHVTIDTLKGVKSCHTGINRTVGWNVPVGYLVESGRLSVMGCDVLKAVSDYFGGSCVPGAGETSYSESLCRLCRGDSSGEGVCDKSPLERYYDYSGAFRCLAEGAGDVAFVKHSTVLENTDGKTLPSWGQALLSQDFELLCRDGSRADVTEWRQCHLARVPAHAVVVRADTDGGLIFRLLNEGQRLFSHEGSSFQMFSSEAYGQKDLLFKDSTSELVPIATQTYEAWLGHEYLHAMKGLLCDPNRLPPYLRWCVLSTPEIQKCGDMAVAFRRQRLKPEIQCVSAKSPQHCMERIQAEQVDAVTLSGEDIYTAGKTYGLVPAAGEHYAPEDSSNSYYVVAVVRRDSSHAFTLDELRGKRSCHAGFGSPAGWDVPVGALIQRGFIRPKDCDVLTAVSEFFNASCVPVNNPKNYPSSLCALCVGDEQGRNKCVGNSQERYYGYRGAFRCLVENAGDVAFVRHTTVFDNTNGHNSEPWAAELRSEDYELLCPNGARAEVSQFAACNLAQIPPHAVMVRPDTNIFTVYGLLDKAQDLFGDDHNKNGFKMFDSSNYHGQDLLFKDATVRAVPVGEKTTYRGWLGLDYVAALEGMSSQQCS
Experimental: The buffer used in the study was PBS, 0.005% P20, 0.2 mg/mi BSA. Antigen was immobilized on one flow cell surface of a CM5 sensor chip and the others were left blank to serve as reference surfaces. For each scFv, triplicates of 0, 0.5, 2.8, 8.3, 25, 75 and 225 nM were injected across the immobilized antigen. The association and dissociation phases were monitored for 1 and 20 minutes, respectively. The antigen surface was regenerated with four 18-second pulses of 2.5 mM NaOH between injections.
The binding affinities of double mutants FP960 and FP965 and triple mutants FP990 and FP999 were compared to the parental molecule by surface plasmon resonance. Recombinant p97 was immobilized on a BIACore CM5 sensor chip and varying concentrations of each scFv fusion protein were injected across the chip in triplicate.

B1: FP930: L49-sFv-bL with mutation K H39 Q (protein)
scFv: MEVQLQESGPSLVKPSQTLSLTCSVTGDSITSGYWNWIRQFPGNKLEYMGYISDSGITYYNPSLKSRISITRDTSKNQYYLQLNFVTAEDTATYNCARRTLATYYAMDYWGQGTSVTVSSGSTSGSGKPGSGEGSTKGDFVMTQTPLSLPVSLGDQASISCRASQSLVHSNGNTYLHWYLQKPGQSPKLLIYRVSNRFSGVPDRFSGSGSGTDFTLKISRVEAEDLGVYFCSQSTHVPPTFGGGTKLEIKRTPVSEKQLAEVVANTITPLMKAQSVPGMAVAVIYQGKPHYYTFGKADIAANKPVTPQTLFELGSISKTFTGVLGGDAIARGEISLDDAVTRYWPQLTGKQWQGIRMLDLATYTAGGLPLQVPDEVTDNASLLRFYQNWQPQWKPGTTRLYANASIGLFGALAVKPSGMPYEQAMTTRVLKPLKLDHTWINVPKAEEAHYAWGYRDGKAVRVSPGMLDAQAYGVKTNVQDMANWVMANMAPENVADASLKQGIALAQSRYWRIGSMYQGLGWEMLNWPVEANTVVETSFGNVALAPLPVAEVNPPAPPVKASWVHKTGSTGGFGSYVAFIPEKQIGIVMLANTSYPNPARVEAAYHILEALQ
antigen binding of refolded mutant compared to parental L49-sFv-bL (FP95) [1]: significant increases in antigen binding

B2: FP965: L49-sFv-bL double mutant K H39 Q, N H91 Y (protein)
scFv: MEVQLQESGPSLVKPSQTLSLTCSVTGDSITSGYWNWIRQFPGNKLEYMGYISDSGITYYNPSLKSRISITRDTSKNQYYLQLNFVTAEDTATYYCARRTLATYYAMDYWGQGTSVTVSSGSTSGSGKPGSGEGSTKGDFVMTQTPLSLPVSLGDQASISCRASQSLVHSNGNTYLHWYLQKPGQSPKLLIYRVSNRFSGVPDRFSGSGSGTDFTLKISRVEAEDLGVYFCSQSTHVPPTFGGGTKLEIKRTPVSEKQLAEVVANTITPLMKAQSVPGMAVAVIYQGKPHYYTFGKADIAANKPVTPQTLFELGSISKTFTGVLGGDAIARGEISLDDAVTRYWPQLTGKQWQGIRMLDLATYTAGGLPLQVPDEVTDNASLLRFYQNWQPQWKPGTTRLYANASIGLFGALAVKPSGMPYEQAMTTRVLKPLKLDHTWINVPKAEEAHYAWGYRDGKAVRVSPGMLDAQAYGVKTNVQDMANWVMANMAPENVADASLKQGIALAQSRYWRIGSMYQGLGWEMLNWPVEANTVVETSFGNVALAPLPVAEVNPPAPPVKASWVHKTGSTGGFGSYVAFIPEKQIGIVMLANTSYPNPARVEAAYHILEALQ
ka (Recombinant p97): 4.000(6) × 10^5 M^−1 s^−1
kd (Recombinant p97): 7.65(1) × 10^−4 s^−1

B3: FP945: L49-sFv-bL with mutation F H82B S (protein)
scFv: MEVQLQESGPSLVKPSQTLSLTCSVTGDSITSGYWNWIRKFPGNKLEYMGYISDSGITYYNPSLKSRISITRDTSKNQYYLQLNSVTAEDTATYNCARRTLATYYAMDYWGQGTSVTVSSGSTSGSGKPGSGEGSTKGDFVMTQTPLSLPVSLGDQASISCRASQSLVHSNGNTYLHWYLQKPGQSPKLLIYRVSNRFSGVPDRFSGSGSGTDFTLKISRVEAEDLGVYFCSQSTHVPPTFGGGTKLEIKRTPVSEKQLAEVVANTITPLMKAQSVPGMAVAVIYQGKPHYYTFGKADIAANKPVTPQTLFELGSISKTFTGVLGGDAIARGEISLDDAVTRYWPQLTGKQWQGIRMLDLATYTAGGLPLQVPDEVTDNASLLRFYQNWQPQWKPGTTRLYANASIGLFGALAVKPSGMPYEQAMTTRVLKPLKLDHTWINVPKAEEAHYAWGYRDGKAVRVSPGMLDAQAYGVKTNVQDMANWVMANMAPENVADASLKQGIALAQSRYWRIGSMYQGLGWEMLNWPVEANTVVETSFGNVALAPLPVAEVNPPAPPVKASWVHKTGSTGGFGSYVAFIPEKQIGIVMLANTSYPNPARVEAAYHILEALQ
antigen binding of refolded mutant compared to parental L49-sFv-bL (FP95) [1]: significant increases in antigen binding

B4: FP960: L49-sFv-bL double mutant F H82B S, N H91 Y (protein)
scFv: MEVQLQESGPSLVKPSQTLSLTCSVTGDSITSGYWNWIRKFPGNKLEYMGYISDSGITYYNPSLKSRISITRDTSKNQYYLQLNSVTAEDTATYYCARRTLATYYAMDYWGQGTSVTVSSGSTSGSGKPGSGEGSTKGDFVMTQTPLSLPVSLGDQASISCRASQSLVHSNGNTYLHWYLQKPGQSPKLLIYRVSNRFSGVPDRFSGSGSGTDFTLKISRVEAEDLGVYFCSQSTHVPPTFGGGTKLEIKRTPVSEKQLAEVVANTITPLMKAQSVPGMAVAVIYQGKPHYYTFGKADIAANKPVTPQTLFELGSISKTFTGVLGGDAIARGEISLDDAVTRYWPQLTGKQWQGIRMLDLATYTAGGLPLQVPDEVTDNASLLRFYQNWQPQWKPGTTRLYANASIGLFGALAVKPSGMPYEQAMTTRVLKPLKLDHTWINVPKAEEAHYAWGYRDGKAVRVSPGMLDAQAYGVKTNVQDMANWVMANMAPENVADASLKQGIALAQSRYWRIGSMYQGLGWEMLNWPVEANTVVETSFGNVALAPLPVAEVNPPAPPVKASWVHKTGSTGGFGSYVAFIPEKQIGIVMLANTSYPNPARVEAAYHILEALQ
ka (Recombinant p97): 3.640(4) × 10^5 M^−1 s^−1
kd (Recombinant p97): 6.383(7) × 10^−4 s^−1

B5: FP950: L49-sFv-bL with mutation N H91 Y (protein)
scFv: MEVQLQESGPSLVKPSQTLSLTCSVTGDSITSGYWNWIRKFPGNKLEYMGYISDSGITYYNPSLKSRISITRDTSKNQYYLQLNFVTAEDTATYYCARRTLATYYAMDYWGQGTSVTVSSGSTSGSGKPGSGEGSTKGDFVMTQTPLSLPVSLGDQASISCRASQSLVHSNGNTYLHWYLQKPGQSPKLLIYRVSNRFSGVPDRFSGSGSGTDFTLKISRVEAEDLGVYFCSQSTHVPPTFGGGTKLEIKRTPVSEKQLAEVVANTITPLMKAQSVPGMAVAVIYQGKPHYYTFGKADIAANKPVTPQTLFELGSISKTFTGVLGGDAIARGEISLDDAVTRYWPQLTGKQWQGIRMLDLATYTAGGLPLQVPDEVTDNASLLRFYQNWQPQWKPGTTRLYANASIGLFGALAVKPSGMPYEQAMTTRVLKPLKLDHTWINVPKAEEAHYAWGYRDGKAVRVSPGMLDAQAYGVKTNVQDMANWVMANMAPENVADASLKQGIALAQSRYWRIGSMYQGLGWEMLNWPVEANTVVETSFGNVALAPLPVAEVNPPAPPVKASWVHKTGSTGGFGSYVAFIPEKQIGIVMLANTSYPNPARVEAAYHILEALQ
antigen binding of refolded mutant compared to parental L49-sFv-bL (FP95) [1]: significant increases in antigen binding
